Details of data set [1]: method as in 3 sources, one per row (each row's own in cited_ref): ref 13 = [13]; PMID 9600986; doi:10.1073/pnas.95.11.6448; 13. Lambert MP , Diffusible, nonfibrillar ligands derived from Abeta1-42 are potent central nervous system neurotoxins . Proc Natl Acad Sci U S A 95 , 6448 – 6453 ( 1998 ). 9600986 10.1073/pnas.95.11. ||| ref 15 = [15]; PMID 26018073; doi:10.1074/jbc.M115.643577; 15. Kostylev MA , Prion-Protein-interacting Amyloid-beta Oligomers of High Molecular Weight Are Tightly Correlated with Memory Impairment in Multiple Alzheimer Mouse Models . J Biol Chem 290 , 17415 – ||| ref 14 = [14]; PMID 19216516; doi:10.1021/bi802046n; 14. Yu L , Structural characterization of a soluble amyloid beta-peptide oligomer . Biochemistry 48 , 1870 – 1877 ( 2009 ). 19216516 10.1021/bi802046n. The following applies: cited from earlier work.

The test system of the next data set is IC16 antibody. The data set can be described thus: IC16 capture ELISA. It is filed as binding. On the technique in general: An ELISA detects its analyte on a solid surface through an enzyme-linked reagent.
In a further data set the test system is Aß42. The data set can be described thus: Thioflavin-T polymerization of Aß42. It is filed as biochemical.
The test system of the next data set is Aß species. The following applies: reported; cited from earlier work. From the text:
For this comparison, the PSCMA-released Aß pool prior to antibody affinity retention was compared to PSCMA-resistant material containing plaque-associated Aß. The PSCMA-resistant material was further extracted with sarkosyl, and the sarkosyl-insoluble pellet resuspended for immunoblot. The Aß ...

In a further data set the test system is receptor-bound Aß. The data set can be described thus: Lecanemab capture ELISA. It counts as binding, human. The following applies: Lecanemab coated plate, D54D2 detection; Extended Data Fig. 1: 5 μg/mL coating, vs isotype control and no antibody wells.

Entries after “also recorded” stand apart in the source; their conditions may differ.

For the molecule “Aß42 globulomer: Globulomers of Aß42 are prepared in SDS and then isolated as stable 12-mers”, the assembly state result in data set [1] (prepared in SDS) was “stable 12-mers”. For the same molecule, in the data set with PrP^C, the “PrP^C binding, summary” value is “binds” and the “apparent avidity for PrP^C in PLISA” value was “similar”. The “affinity/activity in IC16 capture ELISA” value in the data set on IC16 antibody was “much higher activity”.

For the molecule “Aß42 monomers: HFIP-monomerized synthetic Aß42”, in the data set with PrP^C, the “apparent avidity for PrP^C in PLISA” value is on record as “nil or at least two orders of magnitude lower”.

“amyloid-ß derived diffusible ligands [synthetic Aß42 ADDL]”: in data set [1] (no reference at place), the “apparent MR” value was 500,000. In addition, in data set [1] (synthetic Aß42 in F12 media, metastable spherical assemblies), the assembly size was 500 kDa. In addition, the “PrP^C binding, summary” value in the data set with PrP^C was “binds”.

Turning to cellular prion protein [PrP^C], the “effect on Aß42 amyloid filament formation” value in the data set with Aß42 is recorded as “inhibits Aß42 amyloid filament formation”. Besides, in the data set with Aß42 (pH 7.4), the “effect on rate of Aß42 polymerization seeded by fibrils” value was “reduced the rate of Aß42 polymerization or Aß42 polymerization seeded by fibrils” and the “effect on rate of Aß42 polymerization, unseeded” value is given as “reduced the rate of Aß42 polymerization”.

B1: Lecanemab: FDA approved anti-Aß antibody (antibody, chains of the INN, looked up, V domains shown)
VH: EVQLVESGGGLVQPGGSLRLSCSASGFTFSSFGMHWVRQAPGKGLEWVAYISSGSSTIYYGDTVKGRFTISRDNAKNSLFLQMSSLRAEDTAVYYCAREGGYYYGRSYYTMDYWGQGTTVTVSS
VL: DVVMTQSPLSLPVTPGAPASISCRSSQSIVHSNGNTYLEWYLQKPGQSPKLLIYKVSNRFSGVPDRFSGSGSGTDFTLRISRVEAEDVGIYYCFQGSHVPPTFGPGTKLEIK
For B1, the “binding preference among Aß species” value in the data set on Aß species was “preferential affinity for oligomeric and protofibrillary Aß species, with less avidity for Aß filaments and minimal interaction with monomeric Aß”. Further, the “affinity / reactivity for receptor-bound Aß” value in the data set on receptor-bound Aß is listed as “high affinity for the receptor-bound Aß species; also recorded: receptor-bound Aß is recognized by this antibody; also recorded: binds to ELISA plates coated with 5 μg/mL Lecanamab but not to wells coated with isotype control or to no antibody wells”.

The values are drawn from publication doi:10.1101/2025.10.10.681740, “Distinct Filament Conformation for Receptor-Bound Amyloid-ß from Alzheimer’s Disease Brain” (bioRxiv, 2025).
